Assay: yeast display, Sf9 membrane polyspecificity reagent, FACS + sequencing; frameworks hold sequencing errors
Outline: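 Genes from sorted yeast were amplified by colony PCR, read by MiSeq 2 × 250 sequencing and filtered on CDR length. These cells carried a synthetic nanobody library in Saccharomyces cerevisiae BJ5465 and were sorted by FACS into low and high (top ~1%) gates on anti-HA and streptavidin fluorescence. Polyreactivity is labelled according to the gate of origin.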

Sequence	polyreactivity (PSR sort gate)
QVQLLESGCGLVQAGGSLSIRCAATGFIFIFIAMGWSRQATGTERELVAAIDTSDDSTYYADSVMGRFTISRDNAKNTVYLQMNRLKTEDTAVYYCAAEELSNYEYWGQGTQVTVSS	low polyreactivity
QVQLLESGGGFVQEGGSLRLICAASGLTFYYNAMGWYRQAPGTERELVAAISFSGGRTYYADSVKGRFTISRDNAQNTVYLQMNSLKPEDTAVYYCAARVPRYRKDSVWAYYYWGQGTQVTVSS	high polyreactivity
QVQLLESGGGLDQAGGTLRLSWAASGIIFSFYTMGWYRQAPGKERELVAAITWSGGSTYYADSVKGRFTISRDNAKNTVYLQMNSLKPDDTAVYYCIARNPGRKRSQGYSWGQGTQVTVSS	low polyreactivity
QVQLLESGGGLDQARGSLRLSCAASGITFEYNAMGWYRQAPGKERELVAAISLSSGSTYYADSVKGRFTISRDNAKNTVYLQMNSLKPEDTAVYYGNADTIIYEGGYWGQGTQVTVSS	low polyreactivity
QVQLLESGGGLVKAGGCRRLSCAASGSTLTPYTMGWYSEAPGIERELVAAMTQCGGTTYYADSVKGRFTISRDNAQNTVYVQMNSLKPEDTAVYYCAARSYGSTSPIRVQLYYWGQGTQVTVSS	high polyreactivity
QVQLLESGGGLVLAGGSLRLSCAASGRIFNLYAMGWYRQAPGKERELVAAITDIGSSTYYADSVKGRFTISRDNAKNTVYLQMNSLKPEDTAVYYCNAVVKSSSRGSIAHPGYDYWGQGTQVTVSS	high polyreactivity
QVQLLESGGGLVPSGGSLRLSCAASGLTLYTYAMGWYRQAPGKERELVAAISKNGGRTYYADSVKGRFTISRDNAKITVYLQMNSLKPEDTAVYYCADRARVGTVTFDYWGQGTQVTVSS	low polyreactivity
QVQLLESGGGLVPSRGSLRLSCAASGFTFAHYAMGWYRQAPGKERELVAAISGSGSSTYYADSVKGRFTISRDNAKNNVYLQMNSLKPEDTADYYCNVRWYFLYDYWGQGTQVTVSS	low polyreactivity
QVQLLESGGGLVQAGCSLRLSCAASGFIFSYAMGWYRQAPGKERQLVAAISKSGCRTYYADSVKGRFTISRDNAKNTVYLQMNSMKPEDTEVYYCAVRDLHLSNARYNFWGQGNQVTVSS	high polyreactivity
QVQLLESGGGLVQAGGCLRLRCAASVRTFEQNAMGWCRRAPGKERELVASITSVGSTDYADSVKGRFTISRDNAKNTVYLQMNSLKPEDTAGYYCAKTLGSQNYDFDYWGQGTQVTVSS	low polyreactivity
QVQLLESGGGLVQAGGILRLSCAASGSTFYPYAMGWSRQAPGKDRELVAAITGTGGSTYYADSVKGRFRISLDNAKNTVDLQMNSLKPEDPAVYYCATRRRYYYSGYNYWGQGTQVTVSS	high polyreactivity
QVQLLESGGGLVQAGGSLRESCAASGSMFSHNTMGWYRQAPGKERELVATINWRATYYADSVKGRFTISRDNAKNTVYLQMNSLKPEDTAGYYCNKDRQRYGEDYWGQGTQVTVSS	high polyreactivity
QVQLLESGGGLVQAGGSLRISCASSGRTFSSNTMGRYRQAPGKERELVAAISSTDSTYYADSVKGRYTISRDNAKNTVYLQMNSLKPEDTAVYYCAKRPTRRYGYWGQGTQVTVSS	high polyreactivity
QVQLLESGGGLVQAGGSLRLICAASGRIIYGYAMGWYRQAPGKERELVAAITATYYADSVKGRFTISRDNAKNTVYLQMKSLKPVDSGVYYCNAYLSPKQPLSTPDPSFEGGYWGQGTQVTVSS	low polyreactivity
QVQLLESGGGLVQAGGSLRLRCASSGSISDWNAMGWYRQAPGKERELVAAISRGGNTNYADSVKGRFTISRDNAKNTVYLQMNSLKPEDTAVYYCAAGHGSLRYNYWGQGTQVSVSS	high polyreactivity
QVQLLESGGGLVQAGGSLRLSCAASGFIFPGYAMGWYRQAPGKEREFVAAITSRGGSTYYADSVKGRFTISRDNAKNTVYLQMNSLKPEDTAVYYCAARNFLSRRGTYDYWGQGTQVTVSS	high polyreactivity
QVQLLESGGGLVQAGGSLRLSCAASGFTLTRNAMGWYRQAPGKEREFVAAISWSGGSTYADSVKGRFTISRDNAKNTVFLQMNSLKPEDTAVYYCAADRYNGRYGYWGQGTQVTVSS	high polyreactivity
QVQLLESGGGLVQAGGSLRLSCAASGGTFYSYAMGWYRQAPGKEREFVATITRRSGSTYYADSVKGRFTISRDNAKNTVYLQMNSLKPEDNAVYYCAATKYKLLFIHFRYDYWGQGTQVTVSS	high polyreactivity
QVQLLESGGGLVQAGGSLRLSCAASGIIFLDNAMGWYRQAPGKERELVADITSSGGSTYYADSVKGRFTISRDNAKNTVSLQMNSLKPEDTAVYYCAATRPSYNDAESDYWGQGTQVTVSS	low polyreactivity
QVQLLESGGGLVQAGGSLRLSCAASGITFAKYAMGWYRQAPGKEREFVAAISTSGGSTYYADSVKGRFTISRDNAKNTVYLQMNSLKPEDTAVYYSNVETYIWYFLRYYNYWGQGTQVTVSS	high polyreactivity
QVQLLESGGGLVQAGGSLRLSCAASGITLYRYTMGWYRQAPGKEREFVAAISRSGGSTYYADSVKGRFTLSRDNAKNTVYFQMKSLKPDDTAVYYCAAPWYEKTTRPYGSWGQGTQVTVSS	high polyreactivity
QVQLLESGGGLVQAGGSLRLSCAASGLIFERYAMGWYRQAPGKERELVAAITRRGGSTYDADSVKGRFTISRDNAKNTVYFQMNSLKPEDTAVNYCAAGRPQDTEFDYWGLGTQVTVSS	high polyreactivity

Sequence	polyreactivity (PSR sort gate)
QVQLLESGGGLVQAGGSLRLSCAASGLIFGENAMGWYRQAPGKERELVAAISRRAGITYYADSVKGRFTISRDNAKNTVYLQMNSLKPEDTAVYYCAAQYYLYRSRFDYWGQGTQVTVSS	high polyreactivity
QVQLLESGGGLVQAGGSLRLSCAASGLIFRGNDMGWYRPAPGKERELVAGINSSGSTNYADSVKGRFTISRDNAKNTVYLQMNSLKPEDTAVYDCAARAIVSFDYWGQGTQVTVSS	low polyreactivity
QVQLLESGGGLVQAGGSLRLSCAASGLIVSEYAMGWYRQAPGKERELVAAIRSDGGSTYYADSVKGRFTISRDNAKNTVYLQMNSLKPEDTAVYYCNAPYRRSAKFRRYGYDYWGQGTQVTVSS	high polyreactivity
QVQLLESGGGLVQAGGSLRLSCAASGLTFPLYAMGWYRQAPGKERELVAAINWSGGSTYYADSVKGRFTISRDKAKNTVYLQMNSLKPEDTAVYYCAAARSSLYYYWGQGTQVTVSS	high polyreactivity
QVQLLESGGGLVQAGGSLRLSCAASGLTYAYNTMGWYRQAPGKERELVADISWSGGRTYYADSVKGRFTISRDNAKNTVYLQMNSLKPEDTAVYYCAAEFWHQYGAYDYWGQGTQVTVSS	low polyreactivity
QVQLLESGGGLVQAGGSLRLSCAASGNTFTYYAMGWYRQAPGKERELVAAISDDGNTNYADSVMGRFTISRDNAKKTVYSQMNSLKPEDTAVYYCNADSYPSLNKRGYDYWGQGTQVTVSS	low polyreactivity
QVQLLESGGGLVQAGGSLRLSCAASGRIFGSNAMGWYRQAPGKERELVAAITRGGSTNYADSVKGRFTISRDNAKNTVYLQMNSLKPEDTAVYYCAAVPFGEVDYWGQGTQVTVSS	high polyreactivity
QVQLLESGGGLVQAGGSLRLSCAASGRIFTPYAMGWYRQAPGKERELVAVIRDGSTYYADSVKGRFTISRDNAKNTVYLQMNSLKPEDTAVYYCAADVGYSPYFFGGTRYYKYDYWGQGTQVTVSS	low polyreactivity
QVQLLESGGGLVQAGGSLRLSCAASGRIFVKYAMGWYRQAPGKERELVAAISKSGGSTYYADSVKGRFTISRDNAKNTVYLQMNSLKPEDTAVYYCAPRSRDQYSGSYRLDYWGQGTQVTVSS	low polyreactivity
QVQLLESGGGLVQAGGSLRLSCAASGRIFVVNAMGWYRQAPGKERELVATITRGASTYADSVKGRFTISRDNAKNTVYLQMNSLKPEDTAVYYCAAAKRPQVVRYDWTKLEYWGQGTQVTVSS	high polyreactivity
QVQLLESGGGLVQAGGSLRLSCAASGRIFVYYAMGLYRKAPGKERELVATITFGGGSTYYADSVKGRFTISRDNAKNNVYLQMNSLKQEDTAVYYCNAPGFAWYTTKYDYCGQGTQVTVSS	low polyreactivity
QVQLLESGGGLVQAGGSLRLSCAASGRTFRYYAMGWYRQAPGKERELVAAITANGGSTYYADSVKGRFTISRDNAKNTVYLQMNSLKPEDTAVYYCAAKYNTKLYYWGQGTQVTVSS	high polyreactivity
QVQLLESGGGLVQAGGSLRLSCAASGRTFYRYAMGWYRKAPGKETELVAANSSSGGSTYYADSVKGRFTISRDNAKNTVYLQMNSLKPEDTAVYYCAAQYFLFTTPYRYAPRMGYWGQGTQVTVSS	high polyreactivity
QVQLLESGGGLVQAGGSLRLSCAASGSIFGINAMGWYRQAPGKERELVAAISGSTSRTYYADSVKGRFTISRDNAKNTVYLQMNSLKPEDTAVYYCAVVGLRSVTRRSYYWGQGNQVTVSS	high polyreactivity
QVQLLESGGGLVQAGGSLRLSCAASGSIFNRYAMGWYRQAPGKERELVAAISSTGSTYYADSVKGRFTISRDNAKNTVYLQMNSLKPEDTAVYYCNAEATHDWLRVDTYEDWGQGTQVTVSS	low polyreactivity
QVQLLESGGGLVQAGGSLRLSCAASGSIFYRYAMGWYRQAPGKEREFVAAISGSGSSTYYADSVKGRFTISRDNAKNTVYLQMNSLKPEDTAVYYCAARWRYYGSFDYWGQGTQVTVSS	high polyreactivity
QVQLLESGGGLVQAGGSLRLSCAASGSIFYWNAMGWYIQARGKERELLAAINYSGDSTYDADSVKGAFTISRDNAKNTVYLQMNSLKPEDTAVYYCNFDYWGQGTQVTVSS	low polyreactivity
QVQLLESGGGLVQAGGSLRLSCAASGSTFDDNAMGWYRQAPGKERELVAGISDGDDSTNYADSVKGRFTISRDNAKNTVYLQMNRLKPEDTAVYYCNARYVRTYGVRFGYDYWGQGTQVTVSS	low polyreactivity
QVQLLESGGGLVQAGGSLRLSCAASGSTFDSYEMGWYRQAPGKERELVAGISYSSDRTYYADSVKGRFTISRDNAKNTVYLQMNSLKPEDTAVYYCAKDHTGTVQYPLDYWGQGTQVTVSS	low polyreactivity
QVQLLESGGGLVQAGGSLRLSCAASGSTFKSYAMGWYRQAPGKERELVAAISGRGGSTYYADSVKGRVTISRDNAKNTVYLQMNSLKPEDTAVYYCNALGSQRYDYWGQGTQVTVSS	high polyreactivity
QVQLLESGGGLVQAGGSLRLSCAASGSTFRSYAMGWYRQATGKERELVAAISGRGGNTYYADSVKGRFTISRDNAKNTVYLQMNSLKPEDTAVYYCARKTVYYGSDYWGQGTQVTVSS	high polyreactivity
